Assay results published in the RNAGym collection of RNA variant scans (doi:10.1073/pnas.2313332121).
Fewer inactive variants are shown than the library holds.

B1: TPR 5TU (parent)
chain: GGAUCUUCUCGAUCUAACAAAAAAGACAAAUCUGCCACAAAGCUUGAGAGCAUCUUCGGAUGCAGAGGCGGCAGCCUUCGGUGGCGCGAUAGCGCCAACGUUCUCAACUAUGACACGCAAAACGCGUGCUCCGUUGAAUGGAGUUUAUCAUG

Variants of: B1
Test: polymerase ribozyme fitness, log enrichment relative to wild type (log ratio); higher = more active; in vitro selection for triplet polymerase activity
Method in brief: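 One round of in vitro selection, in triplicate, was applied to PCR-built, transcribed mutant libraries of each subunit of a heterodimeric triplet polymerase ribozyme. The steps were annealing with a biotinylated primer, partner subunit and triplets, incubation frozen at −7 °C, gel excision of extended constructs, streptavidin-bead capture and RT-PCR. Fitness is the logarithm, base 2, of genotype enrichment over wild-type enrichment from inverse-variance-weighted replicate averages of Illumina-sequenced inputs and outputs, keeping genotypes with ≥10 input reads and ≥1 read per output.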

GGAUCUUCUCGAUCUAACAAUAAAGACAAAUCUGCCCCAAAGCUUGAGGGCUUCUUCGGAUGCAGAGGCGGCAGCCUUCGGUGGCGCGAUCGCGCCAACGUUCUCAACUAUGACACGCAAAACGCGUGCUCCGUUGAAUGGAGUUUAUCAUG and GGAUCUUCUCGAUCUAACAAAAAAGACAAAGCUGCCACAAAGCUUGAGAGCAUCUUCGGAUGCAGAGGCGGCAGCCUUUGGUGGCGCGAGAGCGCCAACGUUCUCGAAUAUGACACGCAAAACGCGUGCUCCGUUGCAUGGAGUUUAUCAUG cannot be ordered by “polymerase ribozyme fitness (log ratio)” value: no more than -4.2 for the first, no more than -4.2 for the second.

Compared with GGAUCUUCUCGAUCUAACAAAAAAGACAAAUCUGCCACAAAGCUUGAGAGCAUCCUCGGAUGCAGAGGCGGCAGCCUUCGGUGGCGCGAUAGCGCCAACGUUCUCAACUAUGACACGCGAAACGCGUGCUCCGUUGAAUGGAGUAUAUCAUG, GGAUCUUCUCGAUCUAACAAAAAAGACAAAUCUGCCACAAAGCUUGAGAGCAUCAUCGGAUGCAGAGGCGGCAGCCUUCGGUGGCGCGCUAGCGCCAACGUUCUCAACUAUGACACGCAAAACGCGUGCUCCGUUGAAUGGAGUUUAUCAUG is lower in “polymerase ribozyme fitness (log ratio)” value: -0.113 for the first, -0.409 for the second.

First: GGAUCUUCUCGAUCUAACAAAAAAGACAAAUCUGCCACAAAGCUGGAGACCAUCUUCGGAUGCAGAGGCGGCAGCCUUCGCUGGAGCGAUAGCGCCAACGUUCUCAACUAUGACACGAAAAACGCGUGCUCCGUUGAAUGGAGUUUAUCAUG
Second: GGAUCUUCUCGAUCUAACAAAAAAGACAAAUCUGCCACAAAGCUUGAGAGCAUCUUCGGAUGCAGAGGUGGCUGCCUUCGGUGGCGCGAUAGCGCCAACGUUCUCAACUAUGACACGCAAAACGCGUGCUCCGUUGAAUGGAGUUUAUCAUG
The “polymerase ribozyme fitness (log ratio)” value of the first is lower: no more than -4.2 for the first, -2.64 for the second.

First: GGAUCUUCUGGAUCUAACAAAAAAGACAAAUCUGCCCCAAAGCUUGAGAACAUCUUCGGAUGCAGAGGCGGCAGCCUUCGGUGGCGCGAUAGCGUCAAAGUUCUCAACUAUGACACGCAAAACGCGUGCUCCGUUGAAUGGACUUUAUCAUG
Second: GGAUCUUCUCGAUCUAACAAAAAAGACAAAUCUGCCACAAAGCUUGAGAGCAUCUUCGGAUGCAGAGGCGGCAGCCUUCGGUGGCGCGAUAGCGCCAACGUUCUCAACUAUGACACGCAAAACGAGUGCUCCGUUGAAUGGAGUUCAUCAUG
The “polymerase ribozyme fitness (log ratio)” value of the first is lower: no more than -4.2 for the first, -0.394 for the second.

GGAUCUUCUCGAUCUAACAAAAAAGACAAAUCUGCCACAAAGCUUCAGAGCAACUUCGGAUGCAGAGGCGGCAGCCUUCGGUGGCGCGAUAUCGCCAACGUUCUCAACUAGGACACGCAAAACGCGUGCUCCGCUGAAUGGAGUUUAUCAUG and GGAUCUUCUCGAUCUAACAAAAAAGACAAAUCUGCCACAAAGCUUGAGAGUAUCUUCGGAUGCAGAGGCGGCAGCCUUCGGUUGCUCGAUAGCACCAACGUUCUCAACUAUGACACGCAAAACGCGUGCUCCGUGGAAUGGAGGUUAUCAUC cannot be ordered by “polymerase ribozyme fitness (log ratio)” value: no more than -4.2 for the first, no more than -4.2 for the second.

First: GGAUCUUCUCGAUCUAACAAAAAGGACAAAUCUGCCAGAUAGCUUGAGAGCAUCUUCGGAUGCAGAGGCGGCAGCCUUCGGUGGCGCGAUAGCGCCAACGUUCUCAACUCUGACACGCAAAACGCGUGCUCCGUUGAAUGGAGUUUAUCAUG
Second: GGAUCUUCUCGAUCUAACAAAUAAGACAAAUCUGCCACAAAGCUUGAGAGCAUCUUCGGAUGCAGAGGCGGCAGCCUUCGGUGGCGCGAUAGCGCCAACGUUCUCAACUAUGACACGCAAAACGUGUGCUCCGUUGAAUGGAGUUUAUCAUG
The “polymerase ribozyme fitness (log ratio)” value of the first is lower: no more than -4.2 for the first, -0.442 for the second.

First: GGAUCUUCUCGAUCUAACAAAAAAGACAAAUCUGCCAUAAAGCUUGUGAGCAUCUUCGGAUGCAGAGGCGGCAGCCUUCGGUGGCGCGAUAGCGCCAACGUUCUCAACUAUGACACGCAAUACGCGUGCUCCGUAGAAUGGUGUUUAUCAUG
Second: GGAUCUUCUCGAUCUAACAAAAAAGACAAAUCUGCCACAUAGCUUGAGAGCAUCUUCGGAUGCAGAGGCGGCAGCUUUCGGUGGCGCGAUAGCGCCAACGUUCUCAACUAUGACACGCAAAACGCGUGCUCCGUUGAAUGGAGUUUAUCAUG
The “polymerase ribozyme fitness (log ratio)” value of the first is lower: -2.42 for the first, -0.102 for the second.

Going from GGAUCUUCUCGAUCUAACAAAAAAGACAAAUCUGCCACAAAGCUUGAGAGCAUCUUCGGAUGCAGAGGCGGCAGCCUUCGGUGGUGCGAUAGCGCCAACGUUCUCAACUAUGACACGCAAAACGCGUGCUCCGUUGAAUGGAGAUUAUCAUG to GGAUCUUCUCGAUUUAACAACAAAGAUAAAUCUGCAACAAAGCUUGAGAGCAUCUUCGGAUUCAGAGGCGGCAGCCUUCCGUGGCACGAUAGCGCCAACGUUCUCAACUAUGACACGCAAAACGCGUGCUCCGUUGCAUGGAGUUUAUCAUG, the “polymerase ribozyme fitness (log ratio)” value falls from -0.618 to -3.96.

First: GGAUCUUCUGGAUCUAACAAAAAAGACAAAUCUGCCAUAAAGCUUGAGAACAUCUUCGGAUGCAGAGGCGGCAGCCUUCGGUGGCGCGAAAGCGCCAACGUUCUCAACUAUGACACGCAAAACGCGCUCUCCGUUGAAUGGAGUAUAUCAUG
Second: GGAUCUUCUCGAUCUAACAAAAGAGACAAAUCUGCCACAAAGCUUGAGACCAUCUUCGGAUGCAGAGGCGGCAGCCUUCGGUGGCGCGAUAGCGCCAACGUUCUCAACUAUGACACGCAAAACGCGUGCUCCGUUGAAUGGAGUUUAUCAUG
The “polymerase ribozyme fitness (log ratio)” value of the first is lower: no more than -4.2 for the first, -4 for the second.

Compared with GGAUCUUCUCGAUCUAACCAAAAAGACAAAUCUGCCACAAAGCUUGAGAGCAUCUUCGGAUGCAGAGGCGGCAGCCUUCGGUGGCGCGAUAUCGCCAACGUUCUCAACUAUGACACGCAAAACGCGUGCUCCGUUGAAUGGAGUUUAUCAUG, GGAUCUUCUCGAUCUAACAAAAAAGACAAACCUACCACAAAGCUUGAGAGCAUCUUCGGAUGCAGAGGGGGCAGCCUUCGGUGGUGCGAUAGCGCCAACGUUCUCAACUAUGACACGCAAAACGCGUGCUCCGCUGAAUGGAGUUUAUCAUG is lower in “polymerase ribozyme fitness (log ratio)” value: 0.745 for the first, -1.39 for the second.

Going from GGAUCUUCUCGAUCUAACAAAAAAGACAAAUCUGCCACAAAGCUUGAGAGCAUCUUCGGAUGCAGAGGCGGCAGCCUUCGGUGGCGCGAUAGCGCGAACGUUCUCAACUAUGACACGCAAAACGCGUGCUCCGUUGUAUGGAGUUUAUCAUG to GGAUCUUCUCGAUCUAACAAAAAAGACAAAUCUGCCACAUAGCUUGAGAGCAUCUUCGGAUGCAGAGGCGGCAGCCUUCGGUGGCGCGAUAGCGCCAACGUUCUGAACUAUGACACGCAAAACGCGUGCUCCGUUGAAUGGAGUUUAUCAUG, the “polymerase ribozyme fitness (log ratio)” value rises from -4 to -0.905.

GGAUCUUCUCGAUCUAACAAAAAAGACAAAUCUGCCACAAAGCUUGAGAGCAUCUUCUGAUGCAGAGGCGGCAGCCUUCGGUGGCAAGAUAGCGCCAACGUUCUCAACUAUGACACGCAAAACGCGUGCUCCGUUGAAUGGAGUUUAUCAUG and GGAUCUUCUGGAUCUAACACAAAAGACAAAUCGGCCACAAAGCUUGAGAGCAUCUUCGGAUGCAGAGGCGGCAGCCUUCGGUGGCGCGAUAGAUCGAACGUUCUCAACUAUGAUACGCAAAACGCGUGCUCCGUUGAAUGGAGUAUAUCAUG cannot be ordered by “polymerase ribozyme fitness (log ratio)” value: no more than -4.2 for the first, no more than -4.2 for the second.

First: GGAUCUUCUCGAUCUAACAAAAAAGACAAAUCUGCCACAAAGCUUGAGAGCAUCUUCGGAUGCAGAGGCGGCAGCCUUCGGUGGCGCGAUGGCGCCAACGUUCUCAACUAUGAAAUGCAAAACGCGUGCUCCGUUGCAUGGAGUUUAUCAUG
Second: GGAUCUUCUCGAUCUAACAAAAAAGACAAAUCUGCCACAAAGCUUGAGAGCAUAUUCGGAUGCAGAGGCGGCAGCCUUCGGUGGCGCGAUAGCGCCAACGUUCUCAACUAUGACACGCAAUACGCGUGCUCCGUUGAAUGCAGUUUAUCAUG
The “polymerase ribozyme fitness (log ratio)” value of the first is lower: -3.79 for the first, -1.65 for the second.

First: GGAUCUUCUCGAUCUAACAAAAAAGACAAAUCUGCCACAAAGCUUGAGAGCAUCUUAGGAUGCAGAGGCGGCAUCCUUCGGUGGCGCUAUAGCGCCAACGUUCUCAACUAUGACGCGCUAAACGCGUGCUCCGUUGAAUGGAGUGUAUGAUG
Second: GGAUCUUCUCGAUCUAACAAAAAAGACAAAUCUGCCACAAAGCUUGUGAGCGUCUUCGGAUGCAGAGGCGGCAGCCUUCGGUGGCGCGAUAGCGCCAACGUUCUCAACUAUGACACGCAAAACGCGUGCUCCGUUGAAUGGAGGUUAUCAUG
The “polymerase ribozyme fitness (log ratio)” value of the first is lower: no more than -4.2 for the first, 0.507 for the second.

Compared with GGAUCUUCUCGAUCUAACAAAAAAGACAAAUCUGCCACAAAGCUUGAGAGCAUCUUCGGAUGCAGAGGCGGCAGCCUUCGGUGGCGCGAUACCGCCAACGUUCUCAACUAUGACACGCAAAACGCGUGCUCCGUUGAAUGGAGUUUAGCAUG, GGAUCUUCUCGAUCUAACAAAAAAGACAAAUCUGUCACAAAGCUUGAGAGCAUCUUCGGAUGCAGAGGCGGCAGUCUUCGGUAACGCGAUAGCGUUAACGUUCUCAACUAUGACACGCAAAACGCGUGCUCCGUUGAAUGGAGUUUAUCAUG is higher in “polymerase ribozyme fitness (log ratio)” value: -3.89 for the first, -1.5 for the second.

Going from GGAUCUUCUCGAUGUAACAAAAAAGAGAAAUCUGCCACAAAGCUUGAGAGCAUCGUCGGAUGCAGAGACGGCAGCCUUCGGAGGCGCGAUAGCCCCAACGUUCUCAUCUAUGACACGCAAAACGCGUGCUCCGUUGAAUGGGGUUUAUCAUG to GGAUCUUCUCGAUCUAACAAAAAAGACAAAUCUGCCACAAAGCUUGAGAGCAUCUUCGGAUGCAGAGGCGGCAGGCUUCGGUGGCGCGAUAGAGCCAACGUUCUCAACUAUGUCACGCAAAACGCGUGCUCCGUUGAAUGGGGUUUAUCAUG, the “polymerase ribozyme fitness (log ratio)” value rises from no more than -4.2 to -4.17.

First: GGAUCUUCUCGAUCUAACAAAAAAGACAAAUCUGCCACAAAGCUUGAGAGCAUCUUCGGGUGCAGAGGCGGCAGCCUUCGGUGGCGCGAUAGUGCCAACGUUCGCAACUAUGACACGCAAAACGCGUGCUCCGUUGAAUGGACUUUAUCAUG
Second: GGAUCUUCUCGAUCUAACAAAAAAGACAAAUUUCCCACAAAGCUUGAGAGUAUCUUCGGAUGCAGAGGCGGCAGCCUUCGGUGGCGCGAUAGCGCCAACGUUCUCAACUAUGACACGCAAAACGCGUGCGCCGUUGAAUGGAGUAUAUCAUG
The “polymerase ribozyme fitness (log ratio)” value of the first is higher: -3.09 for the first, no more than -4.2 for the second.

GGAUCUUCUCGAUCUAACAAAUAAGACAAAUCUGCCACAAAGCUUGAGAGCAUCUUGGGAUGCAGAGGCGGCAGCCUUCGGUGGCGCGAUAGGGCCAACGUUCUCAACUAUGACACGCAAAACGCGUGCUCCGUUGAAUGGAGUUUAUCAGG and GGAUCUUCUCCAUCUAACAAAAAAGACAAAUCUGCCACAAAGCUUGAGAGCAUCUUCGGAUGUAGAGGCGGCAGCCUUCGGUAGCGCGAUAGCGCCAACGUUCUCAACUAUGACUCGCAAAACGCGUGCUCCGUAGAAUGGAGUUCAUCAUU cannot be ordered by “polymerase ribozyme fitness (log ratio)” value: no more than -4.2 for the first, no more than -4.2 for the second.

First: GGAUCUUCUCGAUCUAACAAAAAAGACAAAUCUGCCACAAAGCUUGAGAGCAUCUUCGGAUGCAGAGGCGGCAGCCUUCGGUGGCGCGAUAGCGCCAACGUCCUCAACUAUGACACGCAAAACGCGUGCUCCGGUUAUUGGAGUUUAUCAUG
Second: GGAUCUUCUCGAUCUAACAAAAAAGACAAAUCUGCCACAAAGCUUGAGAGCAUCUUCGGAUGCAGAGGCGGCAGCCUUCGGUGGCGCGAUAGCGCCAAAGUUCUCAACUAUGACACGCAAAACGCGUGCUCCGGUGAAUGGAGUUUAUCAUG
The “polymerase ribozyme fitness (log ratio)” value of the first is lower: no more than -4.2 for the first, -2.57 for the second.
